Columns and labels:
Experiment in all cases: fluorescence polarisation
[1] = target: FAM-…, N-terminally FAM-labeled Dyn A (2–17)
[2] = target: FAM-GGFLRRI, N-terminally FAM-labeled Dyn A (2–8)
[3] = target: FAM-…, N-terminally FAM-labeled Dyn A (2–13)

Work on “rNln (Met37–Ser704) E475A, C-terminal 6xHis-tag, catalytically inactive mutant (from UniProt P42676 37-704) (enzyme)” yielded a Kd [1] of 3.26 µM, a Kd [2] of 23.7 µM and a Kd [3] of 4.69 µM.
